According to patent CN113999301A (JIANGSU XINTRUM PHARMACEUTICALS CO LTD, dated 2022):

Biological target: 新冠假病毒Delta突变株的S蛋白 (B.1.617.2(Delta)) (SARS-CoV-2, UniProt P0DTC2 14-1273)
Assay: cell-based or functional assay

B1: 抗SARS-CoV-2(COVID-19)S蛋白RBD单克隆抗体B15-5-B3 (antibody, V domains shown)
VH: EVKFEESGGGLVQPGGSMKLSCAASGFTFSDAWMDWVRQSPEKGLEWVAEIRNKANNHATYYAESVKGRFTISRDDSKSSVYLQMNSLRAEDTGIYYCTPYDYAYPWFWGQGTLVTVSA
VL: EIVLTQSPTTMAASPGEKITITCSASSSISSHYLHWYQQKPGFSPKLLIYRSYSLASGFPGRFSGSGSGTSFSLSIGTMEAEDVATYYCQQGSSRITPFGGGTKLEIK
For B1, the “假病毒中和效应 EC50 (luciferase, HEK293-ACE2 cells)” value was 0.27 µg/mL.
